Reference: patent US20150203577A1 (Chugai, published 2015)
Where a chain is given by its changes, count along the chain named.

T1: mouse FcγRII (mouse, UniProt P08101 30-210)
T1 construct: also called mFcγRII; mFcgRII
T1 sequence: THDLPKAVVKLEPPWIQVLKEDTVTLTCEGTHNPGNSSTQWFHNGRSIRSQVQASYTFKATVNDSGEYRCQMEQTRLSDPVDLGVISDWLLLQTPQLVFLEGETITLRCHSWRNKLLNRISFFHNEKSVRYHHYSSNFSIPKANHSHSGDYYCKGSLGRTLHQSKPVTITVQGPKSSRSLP

T2: mouse FcγRIII (mouse, UniProt P08508 31-215)
T2 construct: also called mFcγRIII; mFcgRIII
T2 chain: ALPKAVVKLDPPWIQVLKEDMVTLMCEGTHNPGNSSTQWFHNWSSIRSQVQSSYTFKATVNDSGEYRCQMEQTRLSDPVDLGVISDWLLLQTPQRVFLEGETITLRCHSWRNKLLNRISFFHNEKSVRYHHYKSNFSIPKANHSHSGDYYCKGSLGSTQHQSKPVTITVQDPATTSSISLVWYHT

B1: MB301 (antibody, mouse IgG1, kappa)
heavy: QVQLQESGPGLVKPSETLSLTCAVSGHSISHDHAWSWVRQPPGEGLEWIGFISYSGITNYNPSLQGRVTISRDNSKNTLYLQMNSLRAEDTAVYYCARSLARTTAMDYWGEGTLVTVSSAKTTPPSVYPLAPGSAAQTNSMVTLGCLVKGYFPEPVTVTWNSGSLSSGVHTFPAVLQSDLYTLSSSVTVPSSTWPSETVTCNVAHPASSTKVDKKIVPRDCGCKPCICEVEEVSDVFIFPPKPKDVLTITLTPKVTCVVVDISKDDPEVQFSWFVDDVEVHTAQTQPREEQFNSTFRSVSELPIMHQDWLNGKEFKCRVNSAAFPAPIEKTISKTKGRPKAPQVYTIPPPKEQMAKDKVSLTCMITDFFPEDITVEWQWNGQPAENYKNTQPIMDTDGSYFVYSKLNVQKSNWEAGNTFTCSVLHEGLHNHHTEKSLSHSPGK
light: not shown
notes: copies: 2 + 2
B2: MB303 (antibody, mouse IgG1, kappa)
heavy: B1 heavy with E231P, V236E
light: not shown
notes: copies: 2 + 2
B3: MB304 (antibody, mouse IgG1, kappa)
heavy: B1 heavy with E231P, V236H
light: not shown
notes: copies: 2 + 2
B4: MB306 (antibody, mouse IgG1, kappa)
heavy: B1 heavy with E229T, V230A, E231P, S234E
light: not shown
notes: copies: 2 + 2
B5: MB307 (antibody)
heavy: B1 heavy with E229T, V230A, E231P, V236E
light: not shown
notes: copies: 2 + 2
B6: MB308 (antibody, mouse IgG1, kappa)
heavy: B1 heavy with E229T, V230A, E231P, V236H
light: not shown
notes: copies: 2 + 2
B7: MB309 (antibody, mouse IgG1, kappa)
heavy: B1 heavy with E229T, V230D
light: not shown
notes: copies: 2 + 2
B8: MB310 (antibody, mouse IgG1, kappa)
heavy: B1 heavy with E229T, V230D, E231P, S234E
light: not shown
notes: copies: 2 + 2
B9: MB311 (antibody, mouse IgG1, kappa)
heavy: B1 heavy with E229T, V230D, E231P, V236E
light: not shown
notes: copies: 2 + 2
B10: MB312 (antibody, mouse IgG1, kappa)
heavy: B1 heavy with E229T, V230D, E231P, V236H
light: not shown
notes: copies: 2 + 2
B11: MB313 (antibody, mouse IgG1, kappa)
heavy: B1 heavy with E229T, S234E
light: not shown
notes: copies: 2 + 2
B12: MB314 (antibody, mouse IgG1, kappa)
heavy: B1 heavy with E229T, V236E
light: not shown
notes: copies: 2 + 2
B13: MB315 (antibody, mouse IgG1, kappa)
heavy: B1 heavy with E229T, V236H
light: not shown
notes: copies: 2 + 2
B14: MB316 (antibody, mouse IgG1, kappa)
heavy: B1 heavy with E229T, E231P, S234E, V236E
light: not shown
notes: copies: 2 + 2
B15: MB317 (antibody, mouse IgG1, kappa)
heavy: B1 heavy with E229T, E231P, S234E, V236H
light: not shown
notes: copies: 2 + 2
B16: MB318 (antibody, mouse IgG1, kappa)
heavy: B1 heavy with S234E
light: not shown
notes: copies: 2 + 2
B17: MB319 (antibody, mouse IgG1, kappa)
heavy: B1 heavy with V230A, S234E
light: not shown
notes: copies: 2 + 2
B18: MB320 (antibody, mouse IgG1, kappa)
heavy: B1 heavy with V230A, S234E, V236E
light: not shown
notes: copies: 2 + 2
B19: MB321 (antibody, mouse IgG1, kappa)
heavy: B1 heavy with V230A, S234E, V236H
light: not shown
notes: copies: 2 + 2
B20: MB322 (antibody, mouse IgG1, kappa)
heavy: B1 heavy with V230D, S234E
light: not shown
notes: copies: 2 + 2
B21: MB323 (antibody, mouse IgG1, kappa)
heavy: B1 heavy with V230D, S234E, V236E
light: not shown
notes: copies: 2 + 2
B22: MB324 (antibody, mouse IgG1, kappa)
heavy: B1 heavy with V230D, S234E, V236H
light: not shown
notes: copies: 2 + 2

What follows are binders tested against T1, mouse FcγRII (assay: SPR Biacore T200, KD ratio).
Text: (§1) The antibody H chain variable region used was the variable region H237 (SEQ ID NO: 1) of the H chain VH3-IgG1 of the anti-IL-6 receptor antibody Fv4-IgG1 described in WO2009/125825. The antibody L chain commonly used was the L chain MRAL-k0 (SEQ ID NO: 2) of the anti-IL-6 receptor antibody tocilizumab. […] The resulting variant group was designated as MB110 variants. These variants were expressed and purified by the method of Reference Example 1 and evaluated for their binding to mFcγRII and mFcγRIII by the method of Reference Example 2 using Biacore T200.
(§2) Each altered antibody was analyzed for its interaction with each Fcγ receptor prepared above using Biacore T100 (GE Healthcare Japan Corp.), Biacore T200 (GE Healthcare Japan Corp.), Biacore A100, or Biacore 4000. The running buffer used was HBS-EP+ (GE Healthcare Japan Corp.). The assay temperature was set to 25° C. The sensor chips used were chips prepared by immobilizing Protein L (ACTIGEN or BioVision) onto Series S Sensor Chip CM5 (GE Healthcare Japan Corp.) or Series S Sensor Chip CM4 (GE Healthcare Japan Corp.) by the amine coupling method.
(§3) In order to calculate the KD value of each altered antibody for FcγR, kinetic analysis was conducted according to the following method: first, the antibody of interest was captured onto any of these chips and allowed to interact with mFcγR diluted with a running buffer. For the obtained sensorgram, the assay results were globally fit into the 1:1 Langmuir binding model using Biacore Evaluation Software to calculate an association rate constant ka (L/mol/s) and a dissociation rate constant kd (1/s). From these values, the dissociation constant KD (mol/L) was calculated.
For B1, the “Relative mFcγRII-binding activity (MB110 = 1)” value was 3.52 fold and the “relative mFcγRII-binding activity (mIgG1 = 1)” value was 43.2 fold.
With B2 the “Relative mFcγRII-binding activity (MB110 = 1)” value was 0.64 fold and the “relative mFcγRII-binding activity (mIgG1 = 1)” value was 7.8 fold.
With B3 the “Relative mFcγRII-binding activity (MB110 = 1)” value was 1.11 fold and the “relative mFcγRII-binding activity (mIgG1 = 1)” value was 13.7 fold.
For B4, the “Relative mFcγRII-binding activity (MB110 = 1)” value was 5.36 fold and the “relative mFcγRII-binding activity (mIgG1 = 1)” value was 65.8 fold.
B5 was tested, and the “Relative mFcγRII-binding activity (MB110 = 1)” value was 0.92 fold and the “relative mFcγRII-binding activity (mIgG1 = 1)” value was 11.3 fold.
B6 was tested, and the “Relative mFcγRII-binding activity (MB110 = 1)” value was 2.14 fold and the “relative mFcγRII-binding activity (mIgG1 = 1)” value was 26.3 fold.
In the case of B7, the “Relative mFcγRII-binding activity (MB110 = 1)” value is reported as 2.27 fold and the “relative mFcγRII-binding activity (mIgG1 = 1)” value is reported as 27.9 fold.
With B8 the “Relative mFcγRII-binding activity (MB110 = 1)” value was 3.16 fold and the “relative mFcγRII-binding activity (mIgG1 = 1)” value was 38.8 fold.
B9 was tested, and the “Relative mFcγRII-binding activity (MB110 = 1)” value was 1.43 fold and the “relative mFcγRII-binding activity (mIgG1 = 1)” value was 17.6 fold.
B10 was tested, and the “Relative mFcγRII-binding activity (MB110 = 1)” value was 4.51 fold and the “relative mFcγRII-binding activity (mIgG1 = 1)” value was 55.4 fold.
With B11 the “Relative mFcγRII-binding activity (MB110 = 1)” value was 3.27 fold and the “relative mFcγRII-binding activity (mIgG1 = 1)” value was 40.1 fold.
For B12, the “Relative mFcγRII-binding activity (MB110 = 1)” value was 0.58 fold and the “relative mFcγRII-binding activity (mIgG1 = 1)” value was 7.1 fold.
B13 was tested, and the “Relative mFcγRII-binding activity (MB110 = 1)” value was 0.48 fold and the “relative mFcγRII-binding activity (mIgG1 = 1)” value was 5.9 fold.
With B14 the “Relative mFcγRII-binding activity (MB110 = 1)” value was 0.61 fold and the “relative mFcγRII-binding activity (mIgG1 = 1)” value was 7.4 fold.
B15 was tested, and the “Relative mFcγRII-binding activity (MB110 = 1)” value was 0.49 fold and the “relative mFcγRII-binding activity (mIgG1 = 1)” value was 6 fold.
B16 was tested, and the “Relative mFcγRII-binding activity (MB110 = 1)” value was 3.29 fold and the “relative mFcγRII-binding activity (mIgG1 = 1)” value was 40.5 fold.
With B17 the “Relative mFcγRII-binding activity (MB110 = 1)” value was 4.07 fold and the “relative mFcγRII-binding activity (mIgG1 = 1)” value was 50 fold.
With B18 the “Relative mFcγRII-binding activity (MB110 = 1)” value was 0.26 fold and the “relative mFcγRII-binding activity (mIgG1 = 1)” value was 3.2 fold.
With B19 the “Relative mFcγRII-binding activity (MB110 = 1)” value was 0.28 fold and the “relative mFcγRII-binding activity (mIgG1 = 1)” value was 3.5 fold.
With B20 the “Relative mFcγRII-binding activity (MB110 = 1)” value was 0.75 fold and the “relative mFcγRII-binding activity (mIgG1 = 1)” value was 9.2 fold.
In the case of B21, the “Relative mFcγRII-binding activity (MB110 = 1)” value is reported as 0.13 fold and the “relative mFcγRII-binding activity (mIgG1 = 1)” value is reported as 1.7 fold.
For B22, the “Relative mFcγRII-binding activity (MB110 = 1)” value was 0.09 fold and the “relative mFcγRII-binding activity (mIgG1 = 1)” value was 1.1 fold.

Target: T2, mouse FcγRIII
Assay: SPR Biacore T200, KD ratio
Text: as §1, §2, §3
With B1 the “Relative mFcγRIII-binding activity (MB110 = 1)” value was 1.16 fold and the “relative mFcγRIII-binding activity (mIgG1 = 1)” value was 4.6 fold.
For B2, the “Relative mFcγRIII-binding activity (MB110 = 1)” value was 0.32 fold and the “relative mFcγRIII-binding activity (mIgG1 = 1)” value was 1.3 fold.
For B3, the “Relative mFcγRIII-binding activity (MB110 = 1)” value was 0.5 fold and the “relative mFcγRIII-binding activity (mIgG1 = 1)” value was 2 fold.
In the case of B4, the “Relative mFcγRIII-binding activity (MB110 = 1)” value is reported as 1.05 fold and the “relative mFcγRIII-binding activity (mIgG1 = 1)” value is reported as 4.2 fold.
With B5 the “Relative mFcγRIII-binding activity (MB110 = 1)” value was 0.55 fold and the “relative mFcγRIII-binding activity (mIgG1 = 1)” value was 2.2 fold.
B6 was tested, and the “Relative mFcγRIII-binding activity (MB110 = 1)” value was 0.67 fold and the “relative mFcγRIII-binding activity (mIgG1 = 1)” value was 2.7 fold.
For B7, the “Relative mFcγRIII-binding activity (MB110 = 1)” value was 0.96 fold and the “relative mFcγRIII-binding activity (mIgG1 = 1)” value was 3.9 fold.
In the case of B8, the “Relative mFcγRIII-binding activity (MB110 = 1)” value is reported as 0.96 fold and the “relative mFcγRIII-binding activity (mIgG1 = 1)” value is reported as 3.8 fold.
With B9 the “Relative mFcγRIII-binding activity (MB110 = 1)” value was 0.52 fold and the “relative mFcγRIII-binding activity (mIgG1 = 1)” value was 2.1 fold.
For B10, the “Relative mFcγRIII-binding activity (MB110 = 1)” value was 0.87 fold and the “relative mFcγRIII-binding activity (mIgG1 = 1)” value was 3.5 fold.
B11 was tested, and the “Relative mFcγRIII-binding activity (MB110 = 1)” value was 0.99 fold and the “relative mFcγRIII-binding activity (mIgG1 = 1)” value was 4 fold.
With B12 the “Relative mFcγRIII-binding activity (MB110 = 1)” value was 0.27 fold and the “relative mFcγRIII-binding activity (mIgG1 = 1)” value was 1.1 fold.
With B13 the “Relative mFcγRIII-binding activity (MB110 = 1)” value was 0.2 fold and the “relative mFcγRIII-binding activity (mIgG1 = 1)” value was 0.8 fold.
For B14, the “Relative mFcγRIII-binding activity (MB110 = 1)” value was 0.31 fold and the “relative mFcγRIII-binding activity (mIgG1 = 1)” value was 1.2 fold.
B15 was tested, and the “Relative mFcγRIII-binding activity (MB110 = 1)” value was 0.12 fold and the “relative mFcγRIII-binding activity (mIgG1 = 1)” value was 0.5 fold.
In the case of B16, the “Relative mFcγRIII-binding activity (MB110 = 1)” value is reported as 0.96 fold and the “relative mFcγRIII-binding activity (mIgG1 = 1)” value is reported as 3.9 fold.
B17 was tested, and the “Relative mFcγRIII-binding activity (MB110 = 1)” value was 0.89 fold and the “relative mFcγRIII-binding activity (mIgG1 = 1)” value was 3.6 fold.
B18 was tested, and the “Relative mFcγRIII-binding activity (MB110 = 1)” value was 0.11 fold and the “relative mFcγRIII-binding activity (mIgG1 = 1)” value was 0.4 fold.
With B19 the “Relative mFcγRIII-binding activity (MB110 = 1)” value was 0.05 fold and the “relative mFcγRIII-binding activity (mIgG1 = 1)” value was 0.2 fold.
B20 was tested, and the “Relative mFcγRIII-binding activity (MB110 = 1)” value was 0.31 fold and the “relative mFcγRIII-binding activity (mIgG1 = 1)” value was 1.3 fold.
In the case of B21, the “Relative mFcγRIII-binding activity (MB110 = 1)” value is reported as 0.03 fold and the “relative mFcγRIII-binding activity (mIgG1 = 1)” value is reported as 0.1 fold.
For B22, the “Relative mFcγRIII-binding activity (MB110 = 1)” value was 0.03 fold and the “relative mFcγRIII-binding activity (mIgG1 = 1)” value was 0.1 fold.
